# Assay results from the nanobody polyreactivity screen of Harvey et al. (2022).
# Test: yeast display, Sf9 membrane polyspecificity reagent, FACS + sequencing; frameworks hold sequencing errors
# Procedure, shortened: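 A nanobody's polyreactivity label depends on the gate it was sorted from. Yeast display cells were stained with 10% biotinylated, detergent-solubilized Sf9 membrane reagent for 1 hour at 4 °C, enriched on streptavidin microbeads and sorted by FACS. The low and high (top ~1%) gates were set on anti-HA fluorescence for expression and streptavidin fluorescence for reagent binding.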
sequence,measurement,value
QVQLVESVGGLVQAGGSLRLSCAASGSIFAGYAMGWYRQAPGKERELVAAISRRGGRTYYADSVKGRFTISRDIAKNTVYLQMNSLKPEVTAVYYCNRDYRRSTGSPEYDYWGQGTQVTVSS,polyreactivity (PSR sort gate),high polyreactivity
QVQLVESVGGLVQAGGSLRLSCAASGSIFASNSMGWYRQETGKEREFVAAITWRTDRTYYADSVKGRFTISRDNAKNTLYFQMNSLKPEDTAVYYFAADTWFYRFYYWGQGTQVTVSS,polyreactivity (PSR sort gate),high polyreactivity
QVQLVESVGGLVQAGGSLRLSCAASGSIFEQNAMGWYRQAPGKERELVAGINEGGGSTYYADSVKGRFTISRDNAKNTVYLQMNSLKPEDTAVYYCAAEYYDDFSYGWYDYWGQGTQVTVSS,polyreactivity (PSR sort gate),high polyreactivity
QVQLVESVGGLVQAGGSLRLSCAASGSIFFSYAMGWYRQAPGKERELVAGINWSGGSTYADSVKGRFTISRDNAKNTVYLQMNSLKPEDTAVYYCAAKYYSERSRYHYWGQGTQVTVSS,polyreactivity (PSR sort gate),low polyreactivity
QVQLVESVGGLVQAGGSLRLSCAASGSIFGDNAMGWYRQAPGKERELVAAITWRGGSTYYADSVKGRFTISRDNAKNTVYLQMNSLKPEDTAVYYCATDSRSHRDYWGQGTQVTVSS,polyreactivity (PSR sort gate),low polyreactivity
QVQLVESVGGLVQAGGSLRLSCAASGSIFIANAIGWYRQAPGKERELVAAISWSGGRTYYADSVKGRFTISRDNAKNTVYLQMNSLKPEDTAVYYCAAVYGAYDSGRFLSFGNFDYWGQGTQVTVSS,polyreactivity (PSR sort gate),high polyreactivity
QVQLVESVGGLVQAGGSLRLSCAASGSIFLQNAMGGYRQAPGKERELVAAITNGGSTNYADSVKGRFTISRDNAKNTVYLQMNSLKPEDTAVYYCAAYPLYTGSYDRGGYWGQGTLVTVSS,polyreactivity (PSR sort gate),low polyreactivity
QVQLVESVGGLVQAGGSLRLSCAASGSIFRRYTMGWYRQAPGKERELFAAISRVGNTNYAHSVKGRFTISRDNAKNTVYLQMNSLKPEATAVYYCAARAIGYRYTPGLNYWGQGTQVTVSS,polyreactivity (PSR sort gate),high polyreactivity
QVQLVESVGGLVQAGGSLRLSCAASGSIFWSNAMGWYRQAPGKERELVARISTSGGRTYYADSVKGRFTISRDNAKNTVYLQMNSLKPEDTAVYYCNAGKLYYRWLYDYWGQGTQVTVSS,polyreactivity (PSR sort gate),high polyreactivity
QVQLVESVGGLVQAGGSLRLSCAASGSIFYPNAMGLYRQAPGKERELVAAISSSGGTNYADSVKGRFTISRDNAKNTVYLQMNSLKPEDTAVYYCNARDKVRYRYSRMDYWGQGTQVTVSS,polyreactivity (PSR sort gate),low polyreactivity
QVQLVESVGGLVQAGGSLRLSCAASGSIIFTNVMGWYRQAPGKDREFVAAITGGGGSTYYADSVKGRFTISRDNAKNTVYLQMNSLKPEDTAVYYCATKAKPRSGYNYWGQGTQVTVSS,polyreactivity (PSR sort gate),low polyreactivity
QVQLVESVGGLVQAGGSLRLSCAASGSIIKVYAMGWYRQAPGKERELVAGIRGSGGRTYYADSVKGRFTISRDNAKNTVYLQMNSLKPEDTAVYYCNARNPGRLGRFDYWGQGTQVTVSS,polyreactivity (PSR sort gate),low polyreactivity
QVQLVESVGGLVQAGGSLRLSCAASGSNFSKKTMGGSRQAHGKERELVAAITTRGSSTYYADSVKGRFTISRDNAKNTVYLQMNSLKPVDTAVYYCNAPYRVTGGRYRWYDYWGQGTQVTVSS,polyreactivity (PSR sort gate),high polyreactivity
QVQLVESVGGLVQAGGSLRLSCAASGSSIPYYAMGWYRQAPGKERELVARITWRSTSTYADSVKGRFTISRDNAKNTVYLQMNSLKPEDTAVYYCAVRLLSTYIIEYEHWGQGTQVTLSS,polyreactivity (PSR sort gate),low polyreactivity
QVQLVESVGGLVQAGGSLRLSCAASGSTFAYNDMGWYRQAPGKERELVPDIRSGGNTNYADSVKGRFTISRDNAKNTVYLQMNSLKPEDTAVYYCATDGYRIDVYHPDYRYDYWGQGTQVTVSS,polyreactivity (PSR sort gate),low polyreactivity
QVQLVESVGGLVQAGGSLRLSCAASGSTFEDNAMGWYRQAPGKERELVAAITTGGGSTYYADSVKGRFTISRDNAKNTVYLQINSLKPEDTEVYYCNAEHGWFGLLFIATANEYDYLGQGTQVTVSS,polyreactivity (PSR sort gate),low polyreactivity
QVQLVESVGGLVQAGGSLRLSCAASGSTFGINAMGWYRQAPGKERELVASITRRGGSTYYADSVKGRFTISRDNAKNTVYLQMNSLKPEDTAVYYCNKTYRYGTPLYDYWGQGTQVTVSS,polyreactivity (PSR sort gate),high polyreactivity
QVQLVESVGGLVQAGGSLRLSCAASGSTFKYYAMGWYRPAPGKERELVAAITYSGGRTYYADSVKGRFTISRDNAKNTVYLQMNSLNPEDTAGYYCAARRGREDDYWGQGTQVTVSS,polyreactivity (PSR sort gate),low polyreactivity
QVQLVESVGGLVQAGGSLRLSCAASGSTFPFYAMGWYRQAPGKERELVAAITSGGSTYADSVKGRFTISRDNAKNTVYLQMNSLKPEDTAVYYCAASWPRWWRFGYWGQGTQVTVSS,polyreactivity (PSR sort gate),low polyreactivity
QVQLVESVGGLVQAGGSLRLSCAASGSTFTYNDLGWYRQAPGKERELVARITFSSGRTYYADSVKGRFTISRDNAKNTVYLQMNSLTPEDTAVYDCARQWYWPPGYYIGQGYEYWGQGTQVTVSS,polyreactivity (PSR sort gate),low polyreactivity
QVQLVESVGGLVQAGGSLRLSCAASGSTIQGNSMGWYRQAHGKERELVAAISRSGGSTYADSVKGRFTISRDNAKNTVYLEMHSLKPEDTAVFYCAAYSGVGYLWFDYWGQGTQVTVSS,polyreactivity (PSR sort gate),low polyreactivity
QVQLVESVGGLVQAGGSLRLSCAASGSTLSAYVMGWYRQAPGKERELVAAITRGGNTYYADSVKGRFTISRDNAKNTVYLQMNSLKPEDTAVYYCAARTYVSYCYYTLNYWGQGTQVTVSS,polyreactivity (PSR sort gate),high polyreactivity
QVQLVESVGGLVQAGGSLRLSCAASGYNFWSNTMGWYRQAPGKERELVAAISQSTASTYYADSVKGRFTISRDNAKNTVYLQMNSLKPEDTAVYYCAAYYNFGDYEYDYWGQGTQVTVSS,polyreactivity (PSR sort gate),low polyreactivity
QVQLVESVGGLVQAGGSLRLSCADSGLTFVDYAMGWYRQAPGKERELVAAITSSGGSITYYADSVKGRFTISRDNAKNTVYLQMKSLKPEDTAVYYCNADYGIYTDSFRGPDYESRGQGTQVTVSS,polyreactivity (PSR sort gate),low polyreactivity
QVQLVESVGGLVQAGGSLRLSCDASGRIFVKYAMGGSRQAPGKERELVASITSGGRTNYADSVKGRFTISRDNAKNTVYLQMNSLKPEDTAVYYCAADARQSRYNYWGQGTQVTVSS,polyreactivity (PSR sort gate),high polyreactivity
QVQLVESVGGLVQAGGSLRLSCSASGLIFYDYDMGWYRQAPGKERELVAAISNDASTYYAHSVKGRFTISRDNAKNTVYFQMNSLKTEDTAVYFCAAEPYVFGLSSKPFWYNYWGQGTQVTVSS,polyreactivity (PSR sort gate),low polyreactivity
QVQLVESVGGLVQAGGSLRLSSASSGRIFWDYAIGCYRQAPGKERELVASISTDGSTYYADSVKGRFTISRDNAKNTVYLQMNSLKPEDTEVYFCAVRGLYRYIRWGYPSYYYWGLGTQVTVSS,polyreactivity (PSR sort gate),low polyreactivity
QVQLVESVGGLVQAGGSLRLTCAASVFTFGYYAMGWYRQAPGKERELVAAITWSGGRTYYADSVKGRFTISRDNAKYTVYLQMNSLKPEDTAVYYCAVETLWQGSEYWGQGTQVTVSS,polyreactivity (PSR sort gate),low polyreactivity
QVQLVESVGGLVQAGGSLSLSCAASGRMLVRNAMGWYRQAAGKERELVAVIRWSGGRTSYADSVKGRFTISRDNAKNTVYLQMNSLKPEDTAVYYCNKGGSYPTSNYKSYWVGVDYCGQGTQVTVSS,polyreactivity (PSR sort gate),low polyreactivity
QVQLVESVGGLVQAGGSLSLSCAASGSIFIYNARGWYRQAPGKERELVATISSGGSTTYADSVKGRFTISRDNAKNTVYLQMNSLKPEDTAVYYCATYDPPDQYFYLGYYYWGANDYWGQGTQVTVSS,polyreactivity (PSR sort gate),low polyreactivity
QVQLVESVGGLVQAGGSLSLTCAASARTLNIYAMGWNRAAPGKERELVAAISKRGGTTYYADSVKGRFTISRDNAKNTVYLQMNSLKPEDTAVYYCNAAVRGVGELDYWGQGTQVTVSS,polyreactivity (PSR sort gate),high polyreactivity
QVQLVESVGGLVQAGVSLRLSCAASGITFYGYAMGWYRQAPGKERELVATSTSGGSTYYADSVKGRFTISRDNAKNTVYLQMNSLKPVDTAVYYCAASRWYRRTRYGYWGQGTQLTVSS,polyreactivity (PSR sort gate),high polyreactivity
QVQLVESVGGLVQEGGSLRLISAASGSIFGSNAMGWYRQAPGKEREMFAAISKSGGSTYYADSVKGRFTISRDNAKNTVYLQMNSLKPEDTAVFYCNPRWWVVTFYGRYEGDYWGQGTQVTVSS,polyreactivity (PSR sort gate),low polyreactivity
QVQLVESVGGLVQEGGSLRLRCAASGSTFNKYTMGWYRQAPGKERELVAAISLRGGSTYYADSVKGRFTISRDNAKNTVYLQMNSLKPEDTAVYYCNADATHDWLRVDTYEYWGHGTQVTVSS,polyreactivity (PSR sort gate),low polyreactivity
QVQLVESVGGLVQGGGSLRLSCAASGINFYRYALGWYRQAPGKERELVAAINRSGDSTYYADSVKGRFTISRDNAKNTVYLQMNSLKPEDTAVYSCAAQHSIYRNPGLDDYWGQGNQVTVSS,polyreactivity (PSR sort gate),high polyreactivity
QVQLVESVGRLVQAGGSLRLSCDASGSIFYYAMGWYRQAPGKERELVAAITWRGGRTYYADSVKGRFTITRDNEKNTVYLQLNSLKPEDTAVYNCNAVAPCKYNHWGQGTQVTVSS,polyreactivity (PSR sort gate),high polyreactivity
QVQLVESVGVLVQAGGSLRLSCAASGITFSSYAMGWYRQAPGKERELVAAITRTGGRTYYADSVKGRFTISRDNAKNTVYLQMNRLKPEDTAVYYCAAYYIAYYYWGQGTQVTVSS,polyreactivity (PSR sort gate),high polyreactivity
QVQLVESVRGFDQAGVSLRLSCAASGSIFYHNAKGLYRQATVTERELVGAITSDGSTYYADSVKGRFTISRDNGKNTVYLLMNSLKPEDTAVFYCAAEYYGHRYDYLGQGTQVTVSS,polyreactivity (PSR sort gate),low polyreactivity
QVQLVESVVGLVQAGGSLLLSCDASGGIFLRYAMGSYRQAPGKERELVARISNRGGSTYYADSVKGRFTISRDYAKNTVYLQMNSLKPEDTAVYYCAADRWSSSRGDYWGQGTQVTVSS,polyreactivity (PSR sort gate),low polyreactivity
QVQLVESVVGLVQAGGSLRLSCAASGSTFYTYAMGWYRQAPGKERELVAAISYRGGSTYYADSVKGRFTISRDNAKNTVDLQMNSLKPEDTAVFYCNVDGVVVGNKRGGYDYWGQGTQVTVSS,polyreactivity (PSR sort gate),low polyreactivity
QVQLVESVVGLVQAGGSLRLSCASSGSIFYYYTMGWYRHAPGKERELVAAITRGGSTNYADSVKGRFTISRDNAKNTGYLQMNSLKPEDTAVYYCAVAWYRGWYRYDYWGQGTQVTVSS,polyreactivity (PSR sort gate),high polyreactivity
QVQLVESVVGLVQAGGSLRLSSAASGGTFDLYAMGWYRQAPGKERELVAAISRRGSSTYYADSVKGRFTISRDNAKNTVYLQMTSLKPEDTAVYFCNNRYYWHGINEYWGQGTQVTVSS,polyreactivity (PSR sort gate),high polyreactivity
QVQLVESVVGLVQEGGSLRLSCAASGRIFAWYAMGWYRQAPGKERELVAAISDSGGSTYYADSVKGRFTISRDNAKNTVYLQMNSLKPEDTAVYYCAAQYVIRITFYATYWDDYWGQGTQVTVSS,polyreactivity (PSR sort gate),low polyreactivity
